Test results taken from US20030049255A1 (published 2003).
One block for each molecule: values may come before it.

B2: recombinant human type II IL-1R:Fc (Fc fusion)
chain: FTLQPAAHTGAARSCRFRGRHYKREFRLEGEPVALRCPQVPYWLWASVSPRINLTWHKNDSARTVPGEEETRMWAQDGALWLLPALQEDSGTYVCTTRNASYCDKMSIELRVFENTDAFLPFISYPQILTLSTSGVLVCPDLSEFTRDKTDVKIQWYKDSLLLDKDNEKFLSVRGTTHLLVHDVALEDAGYYRCVLTFAHEGQQYNITRSIELRIKKKKEETIPVIISPLKTISASLGSRLTIPCKVFLGTGTPLTTMLWWTANDTHIESAYPGGRVTEGPRQEYSENNENYIEVPLIFDPVTREDLHMDFKCVVHNTLSFQTLRTTVKE
notes: also called human IL-1RII:Fc; soluble recombinant human type II IL 1R:Fc; not shown: Fc portion of human IgG
B3: human IL-1α (ligand, UniProt P01583 113-271, looked up)
chain: SAPFSFLSNVKYNFMRIIKYEFILNDALNQSIIRANDQYLTAAALHNLDEAVKFDMGAYKSSKDDAKITVILRISKTQLYVTAQDEDQPVLLKEMPEIPKTITGSETNLLFFWETHGTKNYFTSVAHPNLFIATKQDYWVCLAGGPPSITDFQILENQA
notes: also called IL-1 alpha

Columns and labels:
[1] = target: cynomolgus IL-1β (cynomolgus macaque) (UniProt P79182); assay: SPR, BIACORE 3000, both Fc fusions captured, ligand in flow
[2] = target: recombinant rhesus IL-1β (rhesus) (UniProt P48090); assay: cell-based or functional assay
[3] = target: recombinant rhesus IL-1α (rhesus) (UniProt P48089); assay: cell-based or functional assay
[4] = target: B2; assay: SPR, BIACORE 3000, receptor:Fc captured, ligand in flow, without cynomolgus IL-1AcP
human IL-1α = target: B3; assay: SPR, BIACORE 3000, receptor:Fc captured on anti-human IgG Fc, ligand in flow, 25 C, without IL-1AcP
Method: (§1) The relative ability of purified soluble type II IL-1R to bind IL-1α, IL-1β and IL-1ra was measured using a BIACORE 3000 instrument with a research grade CM5 sensor chip at 25 degrees C. Soluble recombinant human type II IL-1R was fused to the Fc portion of human IgG so that the resulting type II IL-1R:Fc construct could be bound to a goat anti-human IgG, Fc chain-specific antibody immobilized to the chip using standard amine coupling chemistry. A similar construct was made using IL-1AcP for the same reason. When IL-1AcP:Fc was used in combination with type II IL-1R:Fc, it was mixed in a 1:1 molar ratio before injection into the BIACORE 3000. Kinetic data were obtained by running a range of concentrations of IL-1α, IL-1β, and IL-1 ra over a flow cell that contained receptor bound to immobilized antibody, and a reference cell of immobilized antibody alone. […] In the presence of human IL-1AcP:Fc, the apparent equilibrium binding constants of human type II IL-1R:Fc for human IL-1α and IL-1β were increased >100-fold over those measured in the absence of human IL-1AcP. Human IL-1AcP:Fc slowed the dissociation rates of both ligands by 100-fold. In contrast, human IL-1AcP:Fc had little effect on the affinity of human IL-1RII:Fc for human IL-1ra. In the absence of receptor, no binding of human IL-1α, IL-1β, and IL-1ra to human IL-1AcP:Fc was detected.

[5] = target: T1, recombinant human IL-1 receptor Accessory Protein (AcP):Fc (human, UniProt Q9NPH3 21-359); assay: SPR, BIACORE 3000, Fc fusion captured on anti-human IgG Fc, ligand in flow
T1 construct: also called human IL-1AcP:Fc; soluble recombinant human IL-1AcP:Fc
T1 sequence: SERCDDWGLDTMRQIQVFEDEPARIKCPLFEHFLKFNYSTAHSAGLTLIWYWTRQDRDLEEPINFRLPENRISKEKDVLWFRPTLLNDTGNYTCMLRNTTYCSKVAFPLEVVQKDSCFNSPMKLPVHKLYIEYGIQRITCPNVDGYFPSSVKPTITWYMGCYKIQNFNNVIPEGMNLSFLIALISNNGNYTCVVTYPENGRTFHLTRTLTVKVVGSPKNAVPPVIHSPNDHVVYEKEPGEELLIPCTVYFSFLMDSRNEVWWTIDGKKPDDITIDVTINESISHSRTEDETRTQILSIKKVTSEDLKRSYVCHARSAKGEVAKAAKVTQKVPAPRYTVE
Method: as §1

Sequence of cynomolgus IL-1β (cynomolgus macaque) (P79182 117-268 limits assumed): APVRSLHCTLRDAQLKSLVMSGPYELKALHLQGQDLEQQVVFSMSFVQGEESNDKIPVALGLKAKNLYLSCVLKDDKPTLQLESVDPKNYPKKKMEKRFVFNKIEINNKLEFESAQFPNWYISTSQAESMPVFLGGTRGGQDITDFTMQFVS
Sequence of recombinant rhesus IL-1β (rhesus) (P48090 117-269 limits assumed): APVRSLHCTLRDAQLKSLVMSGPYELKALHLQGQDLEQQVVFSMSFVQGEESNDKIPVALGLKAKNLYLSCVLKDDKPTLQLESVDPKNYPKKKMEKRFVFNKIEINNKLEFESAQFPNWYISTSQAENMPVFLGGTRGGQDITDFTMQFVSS

Molecule: human type II IL-1R:Fc in the presence of cynomolgus IL-1AcP:Fc (from UniProt A0A7N9CMI5 18-336)
Ka [1]: 1.8e+08 M⁻¹ | fold increase of apparent affinity over that without IL-1AcP [1]: > 100 fold

Molecule: B2
fold lower affinity than for human IL-1β (human IL-1α): 100 fold

Molecule: B3
binding result [5]: no binding

B4: cynomolgus IL-1α (ligand, cynomolgus macaque, UniProt P79340 113-271, looked up)
chain: SAPFSFLSNMTYHFIRIIKHEFILNDTLNQTIIRANDQYLTAAAIHNLDEAVKFDMGAYTSSKDDTKVPVILRISKTQLYVSAQDEDQPVLLKEMPEIPKTITGSETNFLFFWETHGTKNYFISVAHPNLFIATKHDNWVCLAKGLPSITDFQILENQA
notes: also called cynomolgus macaque IL-1α
Ka [4]: 1.4e+06 M⁻¹

The next lines start with the values.

NF-κB luciferase reporter activity in COS7 cells [2]: 25 fold | NF-κB luciferase reporter activity in COS7 cells [3]: 25 times
Molecule: soluble IL-1R Type II in the presence of IL-1RAcP (from UniProt P27930 14-343; Q9NPH3 21-367)

Ka [4]: 6.2e+07 M⁻¹
B1: cynomolgus IL-1ra (ligand, cynomolgus macaque, UniProt Q866R8 26-177, looked up)
chain: RPSGRKPSKMQAFRIWDVNQKTFYLRNNQLVAGYLQGPNVNLEEKIDVVPIEPHALFLGIHGGKMCLSCVKSGDETRLQLEAVNITDLSKNRKQDKRFAFVRSDSGPTTSFESAACPGWFLCTAMEADQPVSLTNMPDKGVMVTKFYFQEDE
notes: also called cynomolgus macaque IL-1 receptor antagonist
